Assay results as given in patent US20240316102A1.

Molecular target: CD38 on expanded NK cells (g-NK or cNK) (human) (UniProt P28907)
Experiment: cell-based or functional assay

daratumumab (antibody)
daratumumab-induced fratricide of expanded NK cells (4 h, 1 µg/mL, PI staining, 3-color flow cytometry) (times lower (g-NK versus cNK)): 13
